Measured values: article doi:10.1101/644955

Target: FLAG-tagged rainbow trout IL-2 (IL-2A), expressed in insect cells (rainbow trout (Oncorhynchus mykiss))
Assay: SEC

Substance: FLAG-tagged rainbow trout IL-2 (IL-2A), expressed in insect cells (ligand)
- stoichiometry N: 2
